Results published in paper doi:10.1101/2021.12.21.473719.

Molecular target: POPDC1 tagged with Venus (YFP acceptor for FLIM-FRET with TREK-1) (mouse) (UniProt Q9ES83)
Test: FRET or BRET

POPDC1 tagged with Venus (YFP acceptor for FLIM-FRET with TREK-1) (mouse), sequence (Q9ES83 whole entry): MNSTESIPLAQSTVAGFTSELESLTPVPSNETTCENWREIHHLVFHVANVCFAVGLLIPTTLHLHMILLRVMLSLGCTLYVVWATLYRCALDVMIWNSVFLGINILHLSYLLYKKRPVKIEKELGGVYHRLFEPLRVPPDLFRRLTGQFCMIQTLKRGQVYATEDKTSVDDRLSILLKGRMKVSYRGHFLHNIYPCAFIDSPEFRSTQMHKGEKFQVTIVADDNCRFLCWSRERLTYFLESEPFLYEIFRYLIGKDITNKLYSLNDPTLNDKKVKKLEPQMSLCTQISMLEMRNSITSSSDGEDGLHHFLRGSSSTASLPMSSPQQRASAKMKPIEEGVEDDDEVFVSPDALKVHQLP
Cerulean-TREK-1 (natural protein), sequence (O95069 whole entry): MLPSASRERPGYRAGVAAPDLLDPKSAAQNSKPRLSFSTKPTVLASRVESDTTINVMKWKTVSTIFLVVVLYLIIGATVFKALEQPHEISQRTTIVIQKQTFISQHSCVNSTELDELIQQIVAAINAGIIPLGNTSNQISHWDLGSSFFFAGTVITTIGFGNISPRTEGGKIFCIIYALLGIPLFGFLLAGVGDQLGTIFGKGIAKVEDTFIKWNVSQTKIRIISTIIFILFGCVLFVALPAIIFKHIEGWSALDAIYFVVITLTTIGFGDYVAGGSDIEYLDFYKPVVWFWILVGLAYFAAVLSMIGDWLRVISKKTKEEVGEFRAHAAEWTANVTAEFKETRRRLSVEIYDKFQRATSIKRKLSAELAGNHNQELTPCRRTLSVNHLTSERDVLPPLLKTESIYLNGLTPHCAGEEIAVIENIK

Substance: Cerulean-TREK-1 (natural protein)
- FRET efficiency: 18%
